In PMC5080433 (Nature Communications, 2016):

Experiments:
[1] = biological target: T1, full-length p97 (residues 2–806), purified recombinant (human, UniProt P55072 2-806); experiment: BLI; conditions: both partners purified
T1 construct: p97 (VCP), human, residues 2-806; Hexamer when alone; in complex with ASPL-C it stands in heterotetramers; also called p97 hexamers; wt p97; source: E. coli BL21 DE3 Rosetta2, purified (Ni-NTA, TEV protease, SEC)

[2] = biological target: p97-A232E (human, UniProt P55072 2-806, A232E); experiment: SEC; conditions: both partners purified

Binder	Kd [1]	binding result [2]
C-terminally His-tagged full-length ASPL (residues 1–553) (natural protein, human, UniProt Q9BZE9 1-553, looked up, ASPL, human, residues 1-553; cDNA from the Mammalian Gene Collection; also called ASPL-His; source: E. coli BL21 DE3 Rosetta2, purified (glutathione-Sepharose, TEV cleavage, SEC); not shown: His, C-terminal, kept; GST, N-terminal, cleaved) MAAPAGGGGSAVSVLAPNGRRHTVKVTPSTVLLQVLEDTCRRQDFNPCEYDLKFQRSVLDLSLQWRFANLPNNAKLEMVPASRSREGPENMVRIALQLDDGSRLQDSFCSGQTLWELLSHFPQIRECLQHPGGATPVCVYTRDEVTGEAALRGTTLQSLGLTGGSATIRFVMKCYDPVGKTPGSLGSSASAGQAAASAPLPLESGELSRGDLSRPEDADTSGPCCEHTQEKQSTRAPAAAPFVPFSGGGQRLGGPPGPTRPLTSSSAKLPKSLSSPGGPSKPKKSKSGQDPQQEQEQERERDPQQEQERERPVDREPVDREPVVCHPDLEERLQAWPAELPDEFFELTVDDVRRRLAQLKSERKRLEEAPLVTKAFREAQIKEKLERYPKVALRVLFPDRYVLQGFFRPSETVGDLRDFVRSHLGNPELSFYLFITPPKTVLDDHTQTLFQANLFPAALVHLGAEEPAGVYLEPGLLEHAISPSAADVLVARYMSRAAGSPSPLPAPDPAPKSEPAAEEGALVPPEPIPGTAQPVKRSLGKVPKWLKLPASKR	~2 nM	
ASPL-C (residues 313–553), purified recombinant (domain or fragment) VDREPVDREPVVCHPDLEERLQAWPAELPDEFFELTVDDVRRRLAQLKSERKRLEEAPLVTKAFREAQIKEKLERYPKVALRVLFPDRYVLQGFFRPSETVGDLRDFVRSHLGNPELSFYLFITPPKTVLDDHTQTLFQANLFPAALVHLGAEEPAGVYLEPGLLEHAISPSAADVLVARYMSRAAGSPSPLPAPDPAPKSEPAAEEGALVPPEPIPGTAQPVKRSLGKVPKWLKLPASKR		binds
